Values of other authors in publication PMC3601010, “The complete N-terminal extension of heparin cofactor II is required for maximal effectiveness as a thrombin exosite 1 ligand” (BMC Biochemistry, 2013).

Molecular target: T1, thrombin (Homo sapiens, UniProt P00734)
T1 construct: purchased Enzyme Research, South Bend, IN; host or cells: HCII 1-75 probe made in house in E. coli TOP10
Details: heparin, heparan sulfate, or dermatan sulfate; ref [7]-[11]
From the text: Heparin cofactor II (HCII) is a 66 kDa plasma protein and member of the serpin superfamily of protease inhibitors (reviewed in [3]). It regulates the key coagulation protease thrombin by trapping it in a covalently-linked denaturation-resistant complex. Thrombin-complexed HCII is cleaved at its reactive center peptide bond, while thrombin in the inhibitory complex, by analogy to enzymes in other serpin-enzyme complexes, is conformationally inactivated by active site distortions that render it incapable of completing the catalytic cycle of a proteolytic enzyme. The r ...

increase of thrombin inhibition rate by GAGs: three to four orders of magnitude
B1: HCII: 66 kDa plasma protein and member of the serpin superfamily of protease inhibitors (protein, UniProt P05546 20-499, looked up)
Heparin cofactor 2: GSKGPLDQLEKGGETAQSADPQWEQLNNKNLSMPLLPADFHKENTVTNDWIPEGEEDDDYLDLEKIFSEDDDYIDIVDSLSVSPTDSDVSAGNILQLFHGKSRIQRLNILNAKFAFNLYRVLKDQVNTFDNIFIAPVGISTAMGMISLGLKGETHEQVHSILHFKDFVNASSKYEITTIHNLFRKLTHRLFRRNFGYTLRSVNDLYIQKQFPILLDFKTKVREYYFAEAQIADFSDPAFISKTNNHIMKLTKGLIKDALENIDPATQMMILNCIYFKGSWVNKFPVEMTHNHNFRLNEREVVKVSMMQTKGNFLAANDQELDCDILQLEYVGGISMLIVVPHKMSGMKTLEAQLTPRVVERWQKSMTNRTREVLLPKFKLEKNYNLVESLKLMGIRMLFDKNGNMAGISDQRIAIDLFKHQGTITVNEEGTQATTVTTVGFMPLSTQVRFTVDRPFLFLIYEHRTSCLLFMGRVANPSRS
modifications: plasma-derived
